Assay [1] addresses FCoV-23 S domain B (receptor-binding domain), residues 529-677, avi- and His-tagged (FCoV-23 (feline coronavirus)). The assay can be described thus: BLI. A general note: BLI is a label-free optical method that tracks binding on a fibre tip over time.
For assay [2], the target named is feline APN ectodomain without the Fc fusion (dimer) (feline) (UniProt P79171). As to the kind of experiment: cryo-EM structure.
Sequence of feline APN ectodomain without the Fc fusion (dimer) (feline) (P79171 64-967): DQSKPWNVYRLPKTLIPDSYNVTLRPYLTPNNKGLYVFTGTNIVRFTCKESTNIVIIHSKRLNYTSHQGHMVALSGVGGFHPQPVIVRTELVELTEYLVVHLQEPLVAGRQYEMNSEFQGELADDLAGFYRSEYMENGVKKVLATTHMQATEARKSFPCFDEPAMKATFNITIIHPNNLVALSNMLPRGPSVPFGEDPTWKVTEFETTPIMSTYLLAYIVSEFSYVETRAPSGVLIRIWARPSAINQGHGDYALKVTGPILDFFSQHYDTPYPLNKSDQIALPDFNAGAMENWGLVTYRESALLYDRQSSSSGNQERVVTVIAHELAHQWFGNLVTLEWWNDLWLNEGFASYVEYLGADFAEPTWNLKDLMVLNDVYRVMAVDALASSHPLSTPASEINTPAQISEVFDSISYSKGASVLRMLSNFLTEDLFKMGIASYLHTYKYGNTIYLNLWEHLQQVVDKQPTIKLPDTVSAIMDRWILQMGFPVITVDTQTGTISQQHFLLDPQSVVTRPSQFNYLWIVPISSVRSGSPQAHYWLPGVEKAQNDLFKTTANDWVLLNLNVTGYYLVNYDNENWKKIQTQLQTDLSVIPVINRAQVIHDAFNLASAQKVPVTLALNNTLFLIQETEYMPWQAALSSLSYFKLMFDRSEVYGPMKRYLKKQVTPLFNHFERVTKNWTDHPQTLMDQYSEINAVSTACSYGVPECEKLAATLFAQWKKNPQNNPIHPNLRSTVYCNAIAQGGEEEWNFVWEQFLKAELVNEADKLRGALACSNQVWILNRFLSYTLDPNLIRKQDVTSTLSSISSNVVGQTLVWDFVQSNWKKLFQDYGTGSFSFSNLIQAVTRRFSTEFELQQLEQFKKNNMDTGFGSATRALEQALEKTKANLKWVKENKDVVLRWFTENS

Sequence of feline APN-Fc ectodomain (dimeric) (P79171 64-967): as above
Sequence of canine APN-Fc ectodomain (dimeric) (P79143 71-975): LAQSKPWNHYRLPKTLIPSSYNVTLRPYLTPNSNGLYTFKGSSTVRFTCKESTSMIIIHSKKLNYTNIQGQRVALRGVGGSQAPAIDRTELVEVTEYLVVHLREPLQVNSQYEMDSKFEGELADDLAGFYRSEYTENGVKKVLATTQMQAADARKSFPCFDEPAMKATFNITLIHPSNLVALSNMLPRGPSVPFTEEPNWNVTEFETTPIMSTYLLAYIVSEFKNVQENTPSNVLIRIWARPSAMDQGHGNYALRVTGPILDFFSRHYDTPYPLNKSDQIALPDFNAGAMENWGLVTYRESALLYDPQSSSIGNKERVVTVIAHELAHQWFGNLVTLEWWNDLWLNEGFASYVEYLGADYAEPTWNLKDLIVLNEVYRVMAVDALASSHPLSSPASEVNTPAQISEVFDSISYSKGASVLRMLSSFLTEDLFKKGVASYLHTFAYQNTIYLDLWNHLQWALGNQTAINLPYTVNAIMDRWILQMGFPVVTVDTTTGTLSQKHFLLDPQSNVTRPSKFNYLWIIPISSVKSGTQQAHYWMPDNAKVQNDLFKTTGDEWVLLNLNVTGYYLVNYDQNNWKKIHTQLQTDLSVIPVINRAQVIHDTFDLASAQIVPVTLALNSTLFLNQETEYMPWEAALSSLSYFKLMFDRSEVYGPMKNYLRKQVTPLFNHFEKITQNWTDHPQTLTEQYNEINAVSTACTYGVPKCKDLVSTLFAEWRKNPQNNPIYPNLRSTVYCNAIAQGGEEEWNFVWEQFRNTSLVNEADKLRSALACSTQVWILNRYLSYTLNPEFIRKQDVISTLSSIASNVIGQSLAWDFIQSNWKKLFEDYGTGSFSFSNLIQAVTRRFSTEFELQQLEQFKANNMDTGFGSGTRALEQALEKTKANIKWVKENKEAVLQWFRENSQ

As usually defined, the Kd is the free concentration of one partner at which half of the binding sites on the other are occupied at equilibrium, for simple one-to-one binding. Turning to “feline APN-Fc ectodomain (dimeric) (from UniProt P79171 64-967) (Fc fusion)”, the Kd in assay [1] is 11 nM. With “canine APN-Fc ectodomain (dimeric) (from UniProt P79143 71-975) (Fc fusion)”, in assay [1], the Kd was found to be 1.3 nM. In turn, “FCoV-23 S domain B (receptor-binding domain), residues 529-677, avi- and His-tagged (domain or fragment)” gave a stoichiometry N (RBD per APN protomer) in assay [2] of 1.

These data come from paper doi:10.1101/2024.08.25.607996.
